According to publication PMC5374410, “Identification of a Potent Allosteric Inhibitor of Human Protein Kinase CK2 by Bacterial Surface Display Library Screening” (Pharmaceuticals, 2017):

Experiments:
[1] = molecular target: recombinant human protein kinase CK2 holoenzyme coupled to fluorescein isothiocyanate (FITC) (human) (UniProt P68400)
[2] = molecular target: CK2α-pAzF coupled to DBCO-Sulfo-Cy5 (human) (UniProt P68400); assay: MST; B2 titrated (7.6 nM to 125 or 250 µM) to 100 nM fluorophore-labelled CK2α-DBCO-Sulfo-Cy5 or CK2β^1-193-Flu; 50 mM Tris/HCl pH 7.5, 25 mM NaCl, 20 mM MgCl2, Tween-20, DMSO; 37 °C, MST power 60%; Monolith NT.115; three independent measurements

Sequence of recombinant human protein kinase CK2 holoenzyme coupled to fluorescein isothiocyanate (FITC) (human) (P68400 whole entry, chain 1 of 2): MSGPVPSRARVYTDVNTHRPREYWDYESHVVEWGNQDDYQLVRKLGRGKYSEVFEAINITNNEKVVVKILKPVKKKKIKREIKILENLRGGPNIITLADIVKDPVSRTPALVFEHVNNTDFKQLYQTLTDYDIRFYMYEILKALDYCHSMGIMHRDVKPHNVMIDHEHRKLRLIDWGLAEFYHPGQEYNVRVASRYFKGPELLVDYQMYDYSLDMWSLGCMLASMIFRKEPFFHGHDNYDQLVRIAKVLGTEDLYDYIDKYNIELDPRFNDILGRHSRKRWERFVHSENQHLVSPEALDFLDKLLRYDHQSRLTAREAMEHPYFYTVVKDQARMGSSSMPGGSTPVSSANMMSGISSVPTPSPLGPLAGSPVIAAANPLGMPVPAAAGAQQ
Sequence of recombinant human protein kinase CK2 holoenzyme coupled to fluorescein isothiocyanate (FITC) (human) (P67870 whole entry, chain 2 of 2, further chain): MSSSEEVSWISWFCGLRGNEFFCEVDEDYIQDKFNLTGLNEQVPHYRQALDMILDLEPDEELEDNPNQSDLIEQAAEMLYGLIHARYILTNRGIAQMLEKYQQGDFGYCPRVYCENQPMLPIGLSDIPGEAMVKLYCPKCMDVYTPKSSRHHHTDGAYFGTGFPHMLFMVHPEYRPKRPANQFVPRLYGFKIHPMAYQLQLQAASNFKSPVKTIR

Binder YRKPHWFIHTRI [peptide B3 (free synthetic peptide)] has a percent inhibition of (unlabelled) CK2 holoenzyme at 10 µM peptide, CE assay [1] of under 5%.

KHTKGPTAYCPL [peptide B1 (free synthetic peptide)] showed a percent inhibition of (unlabelled) CK2 holoenzyme at 10 µM peptide, CE assay [1] of under 5%.

In the case of DCRGLIVMIKLH [peptide B2 (free synthetic peptide)], the Kd [2] is reported as 2160 nM.

PCPAPRAPKLSI [peptide B4 (free synthetic peptide)] was tested, and the percent inhibition of (unlabelled) CK2 holoenzyme at 10 µM peptide, CE assay [1] was 29%.
